Positions count from the first letter of the chain named. In names and notes the source's numbering stands. One block for each molecule: values may come before it. No end group written: not given here. *: point of attachment. Farnesyl = CC(C)=CCC/C(C)=C/CC/C(C)=C/C*
How the values were obtained:
[1] = molecular target: FITC-labeled C-terminal peptide of HSP90a; test: fluorescence polarisation
[2] = molecular target: PDE6 γ-subunit with a single Cys at position 35, labeled with 3-(bromo acetyl)-7-diethyl aminocoumarine (UniProt P04972); test: other fluorescence titration
[3] = molecular target: AMCA-labeled C-terminal peptide of mouse PDE6A, S-farnesylated and carboxymethylated (mouse); test: FRET or BRET
[4] = molecular target: T1, human aryl hydrocarbon receptor-interacting protein-like 1 (hAIPL1), full length, His6-tagged (human, UniProt Q9NZN9 1-384); test: other fluorescence titration
T1 sequence (looked up): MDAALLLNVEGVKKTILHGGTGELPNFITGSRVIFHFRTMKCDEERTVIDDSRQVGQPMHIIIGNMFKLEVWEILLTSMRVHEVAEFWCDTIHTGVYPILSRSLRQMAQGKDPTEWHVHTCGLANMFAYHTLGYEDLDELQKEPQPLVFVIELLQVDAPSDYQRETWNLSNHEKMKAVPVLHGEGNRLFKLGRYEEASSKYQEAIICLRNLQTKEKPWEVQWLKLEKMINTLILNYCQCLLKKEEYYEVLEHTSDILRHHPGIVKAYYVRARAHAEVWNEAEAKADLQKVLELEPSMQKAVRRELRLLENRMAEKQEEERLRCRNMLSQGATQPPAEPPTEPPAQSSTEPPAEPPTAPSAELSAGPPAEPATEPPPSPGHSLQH

[5] = molecular target: T2, hAIPL1 1–316 lacking the proline-rich domain, His6-tagged (human, UniProt Q9NZN9 1-316); test: FRET or BRET
T2 sequence (looked up): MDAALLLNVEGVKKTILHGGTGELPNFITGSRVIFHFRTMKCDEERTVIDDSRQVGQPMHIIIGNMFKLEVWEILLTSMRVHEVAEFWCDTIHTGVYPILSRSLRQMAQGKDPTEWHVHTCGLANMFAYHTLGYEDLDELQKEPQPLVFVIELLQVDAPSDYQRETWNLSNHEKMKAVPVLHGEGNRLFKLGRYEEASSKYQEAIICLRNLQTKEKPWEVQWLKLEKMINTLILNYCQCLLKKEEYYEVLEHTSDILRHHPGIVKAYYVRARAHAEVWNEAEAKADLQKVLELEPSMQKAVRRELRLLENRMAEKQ

[6] = molecular target: T3, hAIPL1 P376S mutant, His6-tagged (human, UniProt Q9NZN9 1-384, P376S); test: FRET or BRET
T3 sequence (looked up): T1 sequence (looked up) with P376S

[7] = molecular target: T4, hAIPL1 R302L mutant, His6-tagged (human, UniProt Q9NZN9 1-384, R302L); test: FRET or BRET
T4 sequence (looked up): T1 sequence (looked up) with R302L

[8] = molecular target: T1, human aryl hydrocarbon …; test: FRET or BRET

B1: hAIPL1 1–316 lacking the proline-rich domain, His6-tagged (domain or fragment)
chain: T2 sequence (looked up)
Kd [1]: 20800 nM
Kd [2]: 730 nM

B3: hAIPL1 R302L mutant, His6-tagged (natural protein)
chain: T1 sequence (looked up) with R302L
Kd [1]: 27200 nM
Kd [2]: 810 nM

B4: hAIPL1 P376S mutant, His6-tagged (natural protein)
chain: T1 sequence (looked up) with P376S
Kd [1]: 23000 nM
Kd [2]: 950 nM

B5: PDE6 γ-subunit with a single Cys at position 68, labeled with 3-(bromo acetyl)-7-diethyl aminocoumarine (natural protein, UniProt P04972 1-87, looked up)
chain: MNLEPPKAEIRSATRVMGGPVTPRKGPPKFKQRQTRQFKSKPPKKGVQGFGDDIPGMEGLGTDITVICPWEAFNHLELHELAQYGII
modifications: 3-(bromo acetyl)-7-diethyl aminocoumarine (BC) on Cys68
Kd [4]: 2500 nM

The remaining lines, values ahead:

Kd [1]: 32800 nM
Kd [2]: 1380 nM
Kd [3]: 140 nM
Molecule: hAIPL1 P351∆12 mutant, His6-tagged (from UniProt Q9NZN9 1-384) (natural protein)

Kd [1]: 20800 nM
Kd [2]: 990 nM
B2: human aryl hydrocarbon receptor-interacting protein-like 1 (hAIPL1), full length, His6-tagged (natural protein)
chain: T1 sequence (looked up)

Kd [5]: 240 nM
Kd [6]: 200 nM
Kd [7]: 160 nM
Kd [8]: 110 nM
B6: AMCA-labeled C-terminal peptide of mouse PDE6A, S-farnesylated and carboxymethylated (peptide)
peptide: GAPASKSC(Farnesyl)
modifications: also: Cys carboxymethylated, AMCA-X conjugated

— publication PMC6309207 (Journal of neurochemistry, 2015)
